Source: publication PMC6738654, “BZU2/ZmMUTE controls symmetrical division of guard mother cell and specifies neighbor cell fate in maize”

T1: BZU2/ZmMUTE-ΔC (Zea mays, UniProt K7V1X7 1-189)
T1 sequence: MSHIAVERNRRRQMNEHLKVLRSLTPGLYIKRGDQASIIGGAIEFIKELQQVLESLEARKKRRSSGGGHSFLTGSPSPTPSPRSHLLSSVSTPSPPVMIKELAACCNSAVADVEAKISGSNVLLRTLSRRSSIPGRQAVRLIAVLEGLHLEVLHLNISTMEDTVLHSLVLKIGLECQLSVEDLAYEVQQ


Target: T1, BZU2/ZmMUTE-ΔC
Assay: EMSA; cold probe competitor 2-, 5-, 10-fold; LightShift Chemiluminescent EMSA Kit (Thermo) per manufacturer; buffer, salt, pH and temperature not stated
Conditions: protein: recombinant; chain copies: 2; label: 5' biotin (cold probe unlabeled); blunt

Binder	binding result
P1 (PAN1 promoter E-box -27) (dsDNA) DNA 1: GAATGAGGGGCACCTGGAGAGCACAT DNA 2: ATGTGCTCTCCAGGTGCCCCTCATTC	binds
P2 (PAN2 promoter E-boxes -187, -200) (dsDNA) DNA 1: CAGCCACAACAGGTGTCCCTTTCAAGTGATCTCTGCA DNA 2: TGCAGAGATCACTTGAAAGGGACACCTGTTGTGGCTG	binds
